# Laboratory results published in article PMC9352680, “A comprehensive thermodynamic model for RNA binding by the Saccharomyces cerevisiae Pumilio protein PUF4”.
# T1: PUF4 RNA-binding domain (Saccharomyces cerevisiae, UniProt P25339 537-888)
# T1 sequence: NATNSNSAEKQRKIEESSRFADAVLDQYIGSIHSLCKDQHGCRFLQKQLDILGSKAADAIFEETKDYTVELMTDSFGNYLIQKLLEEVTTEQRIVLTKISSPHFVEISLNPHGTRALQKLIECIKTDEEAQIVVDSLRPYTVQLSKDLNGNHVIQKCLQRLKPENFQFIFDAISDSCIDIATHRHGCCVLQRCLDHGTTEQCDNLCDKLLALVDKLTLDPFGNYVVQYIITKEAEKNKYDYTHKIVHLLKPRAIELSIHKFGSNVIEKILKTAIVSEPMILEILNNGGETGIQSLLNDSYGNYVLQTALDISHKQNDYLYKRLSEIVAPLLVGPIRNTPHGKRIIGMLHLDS
# Target: T1, PUF4 RNA-binding domain
# Test: Mg; RNA-MaP; 20 mM Na-HEPES pH 7.4, 30 mM KOAc, 0.75 mM MgCl2, 0.1% Tween-20, 5% glycerol, 0.1 mg/mL BSA, 2 mM DTT; 25 C; 0.0125-409.6 nM protein
# Conditions: tags: N-His6-TEV cleaved; C-SNAP kept, Cy3B-labelled; label: tethered on chip by stalled RNA polymerase
row,Binder,Kd
1,UCUCUUAGUACUAUUAUCUCUU (ssRNA) [Ib_S1_P5E.1_K5.1_C5.1_H5.1_[T1A]_A5.1_[T5C]_F5.1_T5.1],1400 nM
2,UCUCUUCGUAUCAUUAUCUCUU (ssRNA) [Ib_S1_P5E.1_K5.1_C5.1_H5.1_[T1C]_A5.1_[T6C]_F5.1_T5.1],1380 nM
3,UCUCUUCGUAAUAUUAUCUCUU (ssRNA) [Ib_S1_P5E.1_K5.1_C5.1_H5.1_[T1C]_A5.1_[T5A]_F5.1_T5.1],2020 nM
4,UCUCUUCGUACUAUUAUCUCUU (ssRNA) [Ib_S1_P5E.1_K5.1_C5.1_H5.1_[T1C]_A5.1_[T5C]_F5.1_T5.1],592 nM
5,Id_ii_S4_P3E.2_K3.1_C3.2_[C-2A]_[T-1C]_H3.1_A3.1_F3.1_T3.2_[T9A]_[A10T] (ssRNA) RNA: UUUGACAACUGAUCGUUCUUUCUACUGUAUAUAAUUUCUUUCUCGAUCAGUUGUCUUU,2.65 nM
6,Id_ii_S4_P3E.2_K3.1_C3.2_[T-1C]_H3.1_A3.1_F3.1_T3.2_[T9C]_[A10G] (ssRNA) RNA: UUUGACAACUGAUCGUUCUUUCUCCUGUAUAUACGUUCUUUCUCGAUCAGUUGUCUUU,6.54 nM
7,Id_ii_S4_P3E.2_K3.1_C3.2_[T-1C]_H3.1_A3.1_F3.1_T3.2_[T9A]_[A10T] (ssRNA) RNA: UUUGACAACUGAUCGUUCUUUCUCCUGUAUAUAAUUUCUUUCUCGAUCAGUUGUCUUU,1.23 nM
8,Id_ii_S4_P3E.2_K3.1_C3.2_[T-1A]_H3.1_A3.1_F3.1_T3.2 (ssRNA) RNA: UUUGACAACUGAUCGUUCUUUCUCAUGUAUAUAUAUUCUUUCUCGAUCAGUUGUCUUU,1.73 nM
9,Id_ii_S4_P3E.2_K3.1_C3.2_[T-1C]_H3.1_A3.1_F3.1_T3.2_[A10T] (ssRNA) RNA: UUUGACAACUGAUCGUUCUUUCUCCUGUAUAUAUUUUCUUUCUCGAUCAGUUGUCUUU,1.16 nM
10,Id_ii_S4_P3E.3_K3.2_C3.2_[C-2G]_[T-1G]_H3.2_A3.1_F3.1_T3.2_[T9A] (ssRNA) RNA: UUUGACAACUGAUCGUUCUUUCUGGUAUAUAUAAAUUCUUUCUCGAUCAGUUGUCUUU,676 nM
11,Id_ii_S4_P3E.2_K3.1_C3.2_[C-2A]_H3.1_A3.1_F3.1_T3.2_[T9A]_[A10G] (ssRNA) RNA: UUUGACAACUGAUCGUUCUUUCUAUUGUAUAUAAGUUCUUUCUCGAUCAGUUGUCUUU,10.2 nM
12,Id_ii_S4_P3E.2_K3.1_C3.2_[C-2A]_[T-1C]_H3.1_A3.1_F3.1_T3.2_[A10C] (ssRNA) RNA: UUUGACAACUGAUCGUUCUUUCUACUGUAUAUAUCUUCUUUCUCGAUCAGUUGUCUUU,2.26 nM
13,Id_ii_S4_P3E.2_K3.1_C3.2_[C-2A]_[T-1A]_H3.1_A3.1_F3.1_T3.2_[T9A]_[A10C] (ssRNA) RNA: UUUGACAACUGAUCGUUCUUUCUAAUGUAUAUAACUUCUUUCUCGAUCAGUUGUCUUU,9.36 nM
14,Id_ii_S4_P3E.2_K3.1_C3.2_[C-2A]_H3.1_A3.1_F3.1_T3.2_[T9A] (ssRNA) RNA: UUUGACAACUGAUCGUUCUUUCUAUUGUAUAUAAAUUCUUUCUCGAUCAGUUGUCUUU,11.8 nM
15,Id_ii_S4_P3E.2_K3.1_C3.2_[T-1C]_H3.1_A3.1_F3.1_T3.2_[T9C]_[A10C] (ssRNA) RNA: UUUGACAACUGAUCGUUCUUUCUCCUGUAUAUACCUUCUUUCUCGAUCAGUUGUCUUU,2.05 nM
16,Id_ii_S4_P3E.3_K3.2_C3.2_[C-2G]_[T-1C]_H3.2_A3.1_F3.1_T3.2_[A10T] (ssRNA) RNA: UUUGACAACUGAUCGUUCUUUCUGCUAUAUAUAUUUUCUUUCUCGAUCAGUUGUCUUU,149 nM
17,Id_ii_S4_P3E.2_K3.1_C3.2_[T-1G]_H3.1_A3.1_F3.1_T3.2_[T9C]_[A10C] (ssRNA) RNA: UUUGACAACUGAUCGUUCUUUCUCGUGUAUAUACCUUCUUUCUCGAUCAGUUGUCUUU,11.3 nM
18,Id_ii_S4_P3E.3_K3.2_C3.2_[C-2G]_[T-1C]_H3.2_A3.1_F3.1_T3.2_[T9A]_[A10C] (ssRNA) RNA: UUUGACAACUGAUCGUUCUUUCUGCUAUAUAUAACUUCUUUCUCGAUCAGUUGUCUUU,1200 nM
19,Id_ii_S4_P3E.2_K3.1_C3.2_[C-2A]_H3.1_A3.1_F3.1_T3.2_[A10G] (ssRNA) RNA: UUUGACAACUGAUCGUUCUUUCUAUUGUAUAUAUGUUCUUUCUCGAUCAGUUGUCUUU,10.6 nM
20,Id_ii_S4_P3E.3_K3.2_C3.2_[C-2G]_[T-1G]_H3.2_A3.1_F3.1_T3.2_[A10G] (ssRNA) RNA: UUUGACAACUGAUCGUUCUUUCUGGUAUAUAUAUGUUCUUUCUCGAUCAGUUGUCUUU,562 nM
21,Id_ii_S4_P3E.2_K3.1_C3.2_[T-1G]_H3.1_A3.1_F3.1_T3.2_[T9A]_[A10G] (ssRNA) RNA: UUUGACAACUGAUCGUUCUUUCUCGUGUAUAUAAGUUCUUUCUCGAUCAGUUGUCUUU,6.69 nM
22,Id_ii_S4_P3E.2_K3.1_C3.2_[C-2A]_H3.1_A3.1_F3.1_T3.2_[A10T] (ssRNA) RNA: UUUGACAACUGAUCGUUCUUUCUAUUGUAUAUAUUUUCUUUCUCGAUCAGUUGUCUUU,2.72 nM
23,Id_ii_S4_P3E.2_K3.1_C3.2_[C-2A]_[T-1A]_H3.1_A3.1_F3.1_T3.2_[A10G] (ssRNA) RNA: UUUGACAACUGAUCGUUCUUUCUAAUGUAUAUAUGUUCUUUCUCGAUCAGUUGUCUUU,7.52 nM

row,Binder,Kd
1,Id_ii_S4_P3E.3_K3.2_C3.2_[C-2G]_[T-1G]_H3.2_A3.1_F3.1_T3.2_[A10T] (ssRNA) RNA: UUUGACAACUGAUCGUUCUUUCUGGUAUAUAUAUUUUCUUUCUCGAUCAGUUGUCUUU,234 nM
2,Id_ii_S4_P3E.2_K3.1_C3.2_[T-1G]_H3.1_A3.1_F3.1_T3.2 (ssRNA) RNA: UUUGACAACUGAUCGUUCUUUCUCGUGUAUAUAUAUUCUUUCUCGAUCAGUUGUCUUU,1.4 nM
3,Id_ii_S4_P3E.2_K3.1_C3.2_[T-1A]_H3.1_A3.1_F3.1_T3.2_[T9A]_[A10C] (ssRNA) RNA: UUUGACAACUGAUCGUUCUUUCUCAUGUAUAUAACUUCUUUCUCGAUCAGUUGUCUUU,4.63 nM
4,Id_ii_S4_P3E.3_K3.2_C3.2_[C-2G]_[T-1C]_H3.2_A3.1_F3.1_T3.2_[T9C]_[A10T] (ssRNA) RNA: UUUGACAACUGAUCGUUCUUUCUGCUAUAUAUACUUUCUUUCUCGAUCAGUUGUCUUU,557 nM
5,Id_ii_S4_P3E.3_K3.2_C3.2_[C-2G]_[T-1G]_H3.2_A3.1_F3.1_T3.2_[T9A]_[A10C] (ssRNA) RNA: UUUGACAACUGAUCGUUCUUUCUGGUAUAUAUAACUUCUUUCUCGAUCAGUUGUCUUU,2160 nM
6,Id_ii_S4_P3E.2_K3.1_C3.2_H3.1_A3.1_F3.1_T3.2_[T9G]_[A10T] (ssRNA) RNA: UUUGACAACUGAUCGUUCUUUCUCUUGUAUAUAGUUUCUUUCUCGAUCAGUUGUCUUU,3.88 nM
7,Id_ii_S4_P3E.2_K3.1_C3.2_H3.1_A3.1_F3.1_T3.2_[T9A] (ssRNA) RNA: UUUGACAACUGAUCGUUCUUUCUCUUGUAUAUAAAUUCUUUCUCGAUCAGUUGUCUUU,3.34 nM
8,Id_ii_S4_P3E.2_K3.1_C3.2_[T-1C]_H3.1_A3.1_F3.1_T3.2_[T9G]_[A10T] (ssRNA) RNA: UUUGACAACUGAUCGUUCUUUCUCCUGUAUAUAGUUUCUUUCUCGAUCAGUUGUCUUU,1.77 nM
9,Id_ii_S4_P3E.2_K3.1_C3.2_[T-1C]_H3.1_A3.1_F3.1_T3.2 (ssRNA) RNA: UUUGACAACUGAUCGUUCUUUCUCCUGUAUAUAUAUUCUUUCUCGAUCAGUUGUCUUU,0.873 nM
10,Id_ii_S4_P3E.2_K3.1_C3.2_[T-1C]_H3.1_A3.1_F3.1_T3.2_[T9G]_[A10C] (ssRNA) RNA: UUUGACAACUGAUCGUUCUUUCUCCUGUAUAUAGCUUCUUUCUCGAUCAGUUGUCUUU,2 nM
11,If_S4_P3E.2_K3.1_C3.2_H3.1_A3.1_F3.1_T3.2 (ssRNA) RNA: UUUGACAACUGAUCGUUCUUUCUCUUGUAUAUAUAUUCUUUCUCGAUCAGUUGUCUUU,0.951 nM
12,Id_ii_S4_P3E.2_K3.1_C3.2_[T-1A]_H3.1_A3.1_F3.1_T3.2_[T9G]_[A10C] (ssRNA) RNA: UUUGACAACUGAUCGUUCUUUCUCAUGUAUAUAGCUUCUUUCUCGAUCAGUUGUCUUU,2.75 nM
13,Id_ii_S4_P3E.2_K3.1_C3.2_[T-1A]_H3.1_A3.1_F3.1_T3.2_[T9A] (ssRNA) RNA: UUUGACAACUGAUCGUUCUUUCUCAUGUAUAUAAAUUCUUUCUCGAUCAGUUGUCUUU,5.28 nM
14,Id_ii_S4_P3E.2_K3.1_C3.2_[C-2A]_[T-1C]_H3.1_A3.1_F3.1_T3.2_[A10T] (ssRNA) RNA: UUUGACAACUGAUCGUUCUUUCUACUGUAUAUAUUUUCUUUCUCGAUCAGUUGUCUUU,2.68 nM
15,Id_ii_S4_P3E.2_K3.1_C3.2_[C-2A]_[T-1C]_H3.1_A3.1_F3.1_T3.2_[A10G] (ssRNA) RNA: UUUGACAACUGAUCGUUCUUUCUACUGUAUAUAUGUUCUUUCUCGAUCAGUUGUCUUU,39.2 nM
16,Id_ii_S4_P3E.2_K3.1_C3.2_H3.1_A3.1_F3.1_T3.2_[A10T] (ssRNA) RNA: UUUGACAACUGAUCGUUCUUUCUCUUGUAUAUAUUUUCUUUCUCGAUCAGUUGUCUUU,1.14 nM
17,Id_ii_S4_P3E.2_K3.1_C3.2_[T-1C]_H3.1_A3.1_F3.1_T3.2_[T9C]_[A10T] (ssRNA) RNA: UUUGACAACUGAUCGUUCUUUCUCCUGUAUAUACUUUCUUUCUCGAUCAGUUGUCUUU,1.47 nM
18,Id_ii_S4_P3E.2_K3.1_C3.2_[T-1G]_H3.1_A3.1_F3.1_T3.2_[T9A]_[A10C] (ssRNA) RNA: UUUGACAACUGAUCGUUCUUUCUCGUGUAUAUAACUUCUUUCUCGAUCAGUUGUCUUU,8.59 nM
19,Id_ii_S4_P3E.3_K3.2_C3.2_[C-2G]_H3.2_A3.1_F3.1_T3.2_[T9C]_[A10T] (ssRNA) RNA: UUUGACAACUGAUCGUUCUUUCUGUUAUAUAUACUUUCUUUCUCGAUCAGUUGUCUUU,146 nM
20,Id_ii_S4_P3E.2_K3.1_C3.2_[C-2A]_[T-1A]_H3.1_A3.1_F3.1_T3.2_[T9A]_[A10G] (ssRNA) RNA: UUUGACAACUGAUCGUUCUUUCUAAUGUAUAUAAGUUCUUUCUCGAUCAGUUGUCUUU,13.3 nM
21,Id_ii_S4_P3E.2_K3.1_C3.2_[T-1G]_H3.1_A3.1_F3.1_T3.2_[A10T] (ssRNA) RNA: UUUGACAACUGAUCGUUCUUUCUCGUGUAUAUAUUUUCUUUCUCGAUCAGUUGUCUUU,1.48 nM
22,Id_ii_S4_P3E.2_K3.1_C3.2_[T-1C]_H3.1_A3.1_F3.1_T3.2_[A10G] (ssRNA) RNA: UUUGACAACUGAUCGUUCUUUCUCCUGUAUAUAUGUUCUUUCUCGAUCAGUUGUCUUU,1.76 nM
